# Test system: GST-Ras [GST: P08515]
# Sequence (P08515 whole entry, looked up): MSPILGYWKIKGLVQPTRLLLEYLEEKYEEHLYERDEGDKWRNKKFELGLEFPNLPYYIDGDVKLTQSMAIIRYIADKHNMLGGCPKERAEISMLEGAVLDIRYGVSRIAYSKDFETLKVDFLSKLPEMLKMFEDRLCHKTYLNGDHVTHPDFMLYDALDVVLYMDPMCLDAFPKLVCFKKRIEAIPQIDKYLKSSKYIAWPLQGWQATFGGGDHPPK
substance,measurement,value
Flag-tagged full-length RasGRF2,"fold Ras activation in vitro (bound 32P-GTP, against Ras without GRFs set to 1)","the 4.5 fold activation conferred by GRF2, used as a control"
